B1: CPEB3 Ribozyme (parent)
chain: GGGGGCCACAGCAGAAGCGUUCACGUCGCGGCCCCUGUCAGAUUCUGGUGAAUCUGCGAAUUCUGCUGU

Variants of: B1
Assay: self-cleavage, relative activity (ratio to wild type); higher = more cleavage; co-transcriptional

Variant | self-cleavage
GGGGGCCACAGCAGAAUCGUUCACGUCGCGGCCCCUGGCAGAUUCUGGUGAAUCUGCGAAUUCUGCUGU [G17U U38G] | 0.149
GGGGGCCACAGCAGAAUCGUUCACGUCGCGGCCCCUGACAGAUUCUGGUGAAUCUGCGAAUUCUGCUGU [G17U U38A] | 0.255
GGGGGCCACAGCAGAAGAGUUCACGUCGCGGCCCUUGUCAGAUUCUGGUGAAUCUGCGAAUUCUGCUGU [C18A C35U] | 0.222
GGGGGCCACAGCAGAAGAGUUCACGUCGCGGCCCGUGUCAGAUUCUGGUGAAUCUGCGAAUUCUGCUGU [C18A C35G] | 0.104
GGGGGCCACAGCAGAAUCGUUCACGUCGCGGCCCCUGUCAGAUUCUGGUGAAUCUGCGAAUUCCGCUGU [G17U U64C] | 0.251
GGGGGCCACAGCAGAAUCGGUCACGUCGCGGCCCCUGUCAGAUUCUGGUGAAUCUGCGAAUUCUGCUGU [G17U U20G] | 0.192
GGGGGCCACAGCAGAAUCGCUCACGUCGCGGCCCCUGUCAGAUUCUGGUGAAUCUGCGAAUUCUGCUGU [G17U U20C] | 0.107
GGGGGCCACAGCAGAAUCGAUCACGUCGCGGCCCCUGUCAGAUUCUGGUGAAUCUGCGAAUUCUGCUGU [G17U U20A] | 0.151
GGGGGCCACAGCAGAAUCGUUCACGUCGCGGCCCCUGUCAGAUUCUGGUGAAUCGGCGAAUUCUGCUGU [G17U U55G] | 0.238
GGGGGCCACAGCAGAAUCGUUCACGUCGCGGCCCCUGUCAGAUUCUGGUGAAUCAGCGAAUUCUGCUGU [G17U U55A] | 0.177
GGGGGCCACAGCAGAAGAGUUCACGUCGCGGCUCCUGUCAGAUUCUGGUGAAUCUGCGAAUUCUGCUGU [C18A C33U] | 0.251
GGGGGCCACAGCAGAAGAGUUCACGUCGCGGCGCCUGUCAGAUUCUGGUGAAUCUGCGAAUUCUGCUGU [C18A C33G] | 0.123
GGGGGCCACAGCAGAAGAGUUCACGUCGGGGCCCCUGUCAGAUUCUGGUGAAUCUGCGAAUUCUGCUGU [C18A C29G] | 0.15
GGGGGCCACAGCAGAAGAGUUCACGUCGCGGCCCCUGUCAGAUUCUGGUGUAUCUGCGAAUUCUGCUGU [C18A A51U] | 0.181
GGGGGCCACAGCAGAAGAGUUCACGUCGCGGCCCCUGUCAGAUUCUGGUGGAUCUGCGAAUUCUGCUGU [C18A A51G] | 0.233
GGGGGCCACAGCAGAAUCGUUCACGUCGCGGCCCCUGUCAGAUUCUGGUGAAGCUGCGAAUUCUGCUGU [G17U U53G] | 0.336
GGGGGCCACAGCAGAAUCGUUCACGUCGCGGCCCCUGUCAGAUUCUGGUGAAACUGCGAAUUCUGCUGU [G17U U53A] | 0.265
GGGGGCCACAGCAGAAGAUUUCACGUCGCGGCCCCUGUCAGAUUCUGGUGAAUCUGCGAAUUCUGCUGU [C18A G19U] | 0.12
GGGGGCCACAGCAGAAGACUUCACGUCGCGGCCCCUGUCAGAUUCUGGUGAAUCUGCGAAUUCUGCUGU [C18A G19C] | 0.0974
GGGGGCCACAGCAGAAUCGUUCACGUCGCGGCCCCUGUCAGAUUCUGGUGAAUCUGCGAAUUCUGCUAU [G17U G68A] | 0.875
GGGGGCCACAGCAGAAUCGUUCACGACGCGGCCCCUGUCAGAUUCUGGUGAAUCUGCGAAUUCUGCUGU [G17U U26A] | 0.312
GGGGGCCACAGCAGAAUCGUUCACGCCGCGGCCCCUGUCAGAUUCUGGUGAAUCUGCGAAUUCUGCUGU [G17U U26C] | 0.286
GGGGGCCACAGCAGAAUCGUUCACGGCGCGGCCCCUGUCAGAUUCUGGUGAAUCUGCGAAUUCUGCUGU [G17U U26G] | 0.297
GGGGGCCACAGCAGAAUCGUUCACGUCGCGGCCCCUGUCAGAUUCUGGUGAAUCUGCGAAAUCUGCUGU [G17U U61A] | 0.333
GGGGGCCACAGCAGAAGAGUUCACGUCACGGCCCCUGUCAGAUUCUGGUGAAUCUGCGAAUUCUGCUGU [C18A G28A] | 0.12
GGGGGCCACAGCAGAAGAGUUCACGUCUCGGCCCCUGUCAGAUUCUGGUGAAUCUGCGAAUUCUGCUGU [C18A G28U] | 0.889

Variant | self-cleavage
GGGGGCCACAGCAGAAGAGUUCACGUCCCGGCCCCUGUCAGAUUCUGGUGAAUCUGCGAAUUCUGCUGU [C18A G28C] | 0.426
GGGGGCCACAGCAGAAGAGUUCACGUCGCGGCCCCUGUCAGAUUCUGGUGAAUCUGCGCAUUCUGCUGU [C18A A59C] | 0.0942
GGGGGCCACAGCAGAAGAGUUCACGUCGCGGCCCCUGUCUGAUUCUGGUGAAUCUGCGAAUUCUGCUGU [C18A A40U] | 0.0764
GGGGGCCACAGCAGAAGAGUUCACGUCGCGGCCCCUGUCGGAUUCUGGUGAAUCUGCGAAUUCUGCUGU [C18A A40G] | 0.176
GGGGGCCACAGCAGAAGAGUUCACCUCGCGGCCCCUGUCAGAUUCUGGUGAAUCUGCGAAUUCUGCUGU [C18A G25C] | 0.178
GGGGGCCACAGCAGAAGAGUUCACUUCGCGGCCCCUGUCAGAUUCUGGUGAAUCUGCGAAUUCUGCUGU [C18A G25U] | 0.0886
GGGGGCCACAGCAGAAGAGUUCAAGUCGCGGCCCCUGUCAGAUUCUGGUGAAUCUGCGAAUUCUGCUGU [C18A C24A] | 0.142
GGGGGCCACAGCAGAAGAGUUCAUGUCGCGGCCCCUGUCAGAUUCUGGUGAAUCUGCGAAUUCUGCUGU [C18A C24U] | 0.0604
GGGGGCCACAGCAGAAGAGUUCACGUCGCGGCCCCUGUCAGAUUCUGGUGAAUCUGCGAAUUGUGCUGU [C18A C63G] | 0.147
GGGGGCCACAGCAGAAGAGUUCACGUCGCGGCCCCUGUCAGAUUCUGGUGAAUCUGCGAAUUUUGCUGU [C18A C63U] | 0.151
GGGGGCCACAGCAGAAUCGUUCACGUCGCGGCCCCUGUCAGAUUCUGGGGAAUCUGCGAAUUCUGCUGU [G17U U49G] | 0.455
GGGGGCCACAGCAGAAUCGUUCACGUCGCGGCCCCUGUCAGAUUCUGGAGAAUCUGCGAAUUCUGCUGU [G17U U49A] | 0.662
GGGGGCCACAGCAGAAUCGUUCACGUCGCGGCCCCUGUCAGAUUCUGGCGAAUCUGCGAAUUCUGCUGU [G17U U49C] | 0.554
GGGGGCCACAGCAGAAUCGUUCACGUCGCGGCCCCAGUCAGAUUCUGGUGAAUCUGCGAAUUCUGCUGU [G17U U36A] | 0.0699
GGGGGCCACAGCAGAAUCGUUCACGUCGCGGCCCCGGUCAGAUUCUGGUGAAUCUGCGAAUUCUGCUGU [G17U U36G] | 0.191
GGGGGCCACAGCAGAAGAGUUCACGUCGCGGCCCCUGUCAGAUUCUGGUGAAUCUGAGAAUUCUGCUGU [C18A C57A] | 0.117
GGGGGCCACAGCAGAAUCGUUCACGUCGCGGCCCCUGUCAGAUUCCGGUGAAUCUGCGAAUUCUGCUGU [G17U U46C] | 0.537
GGGGGCCACAGCAGAAUCGUUCACGUCGCGGCCCCUGUCAGAUUCUGGUGAAUCUGCGAAUCCUGCUGU [G17U U62C] | 0.23
GGGGGCCACAGCAGAAUCGUUCACGUCGCGGCCCCUGUCAGAUUCUGGUGAAUCUGCGAAUGCUGCUGU [G17U U62G] | 0.316
GGGGGCCACAGCAGAAUCGUUCACGUCGCGGCCCCUGUCAGAUUCUGGUGAAUCUGCGAAUACUGCUGU [G17U U62A] | 0.281
GGGGGCCACAGCAGAAGAGUUCACGUCGCCGCCCCUGUCAGAUUCUGGUGAAUCUGCGAAUUCUGCUGU [C18A G30C] | 0.133
GGGGGCCACAGCAGAAGAGUUCACGUCGCAGCCCCUGUCAGAUUCUGGUGAAUCUGCGAAUUCUGCUGU [C18A G30A] | 0.117
GGGGGCCACAGCAGAAUCGUACACGUCGCGGCCCCUGUCAGAUUCUGGUGAAUCUGCGAAUUCUGCUGU [G17U U21A] | 0.367
GGGGGCCACAGCAGAAUCGUGCACGUCGCGGCCCCUGUCAGAUUCUGGUGAAUCUGCGAAUUCUGCUGU [G17U U21G] | 0.0999
GGGGGCCACAGCAGAAGAGUUCGCGUCGCGGCCCCUGUCAGAUUCUGGUGAAUCUGCGAAUUCUGCUGU [C18A A23G] | 0.171
GGGGGCCACAGCAGAAUCGUUCACGUCGCGGCCCCUGUCAGAUACUGGUGAAUCUGCGAAUUCUGCUGU [G17U U44A] | 0.395

Variant | self-cleavage
GGGGGCCACAGCAGAAUCGUUCACGUCGCGGCCCCUGUCAGAUCCUGGUGAAUCUGCGAAUUCUGCUGU [G17U U44C] | 0.368
GGGGGCCACAGCAGAAUCGUUCACGUCGCGGCCCCUGUCAGAUUCUGGUGAAUCUGCGAAUUCUGCCGU [G17U U67C] | 0.537
GGGGGCCACAGCAGAAGAGUUCACGUCGCGGCCCCUGUCAGAUUCUGGUGAAUUUGCGAAUUCUGCUGU [C18A C54U] | 0.173
GGGGGCCACAGCAGAAGAGUUCACGUCGCGGCCCCUGUCAGAUUCUGGUGAAUGUGCGAAUUCUGCUGU [C18A C54G] | 0.179
GGGGGCCACAGCAGAAGAGUUCACGUAGCGGCCCCUGUCAGAUUCUGGUGAAUCUGCGAAUUCUGCUGU [C18A C27A] | 0.163
GGGGGCCACAGCAGAAGAGUUCACGUCGCGGCCCCUGUCAGAUUCUGGUGAAUCUGCGAUUUCUGCUGU [C18A A60U] | 0.131
GGGGGCCACAGCAGAAGAGUUCACGUCGCGGCCACUGUCAGAUUCUGGUGAAUCUGCGAAUUCUGCUGU [C18A C34A] | 0.145
GGGGGCCACAGCAGAAGAGUUCACGUCGCGGCCCCUGUCAGAUUAUGGUGAAUCUGCGAAUUCUGCUGU [C18A C45A] | 0.0998
GGGGGCCACAGCAGAAGAGUUCACGUCGCGGCCCCUGUCAGAUUGUGGUGAAUCUGCGAAUUCUGCUGU [C18A C45G] | 0.179
GGGGGCCACAGCAGAAGAGUUCACGUCGCGGCCCCUGUCAGAUUUUGGUGAAUCUGCGAAUUCUGCUGU [C18A C45U] | 0.21
GGGGGCCACAGCAGAAGAGUUCACGUCGCGGCCCCUGUGAGAUUCUGGUGAAUCUGCGAAUUCUGCUGU [C18A C39G] | 0.142
GGGGGCCACAGCAGAAGAGUUCACGUCGCGGCCCCUGUUAGAUUCUGGUGAAUCUGCGAAUUCUGCUGU [C18A C39U] | 0.136
GGGGGCCACAGCAGAAGAGUUCACGUCGCGGCCCCUGUAAGAUUCUGGUGAAUCUGCGAAUUCUGCUGU [C18A C39A] | 0.156
GGGGGCCACAGCAGAAGAGUUCACGUCGCGGCCCCUGUCAGAUUCUGGUGAAUCUGCGAAUUCUGCUGU [C18A] | 0.2
GGGGGCCACAGCAGAAGAGUUCACGUCGCGGCCCCUGUCAGUUUCUGGUGAAUCUGCGAAUUCUGCUGU [C18A A42U] | 0.0858
GGGGGCCACAGCAGAAGAGUUCACGUCGCGGCCCCUGUCAGCUUCUGGUGAAUCUGCGAAUUCUGCUGU [C18A A42C] | 0.166
GGGGGCCACAGCAGAAUCGUUCACGUCGCGGCCCCUGUCAGAUUCUGGUGAAUCUGCGAAUUCUGCUGC [G17U U69C] | 0.874
GGGGGCCACAGCAGAAUCGUUCACGUCGCGGCCCCUGUCAGACUCUGGUGAAUCUGCGAAUUCUGCUGU [G17U U43C] | 0.446
GGGGGCCACAGCAGAAGAGUUCACGUCGCGGCCCCUGUCAGAUUCUGGUGAUUCUGCGAAUUCUGCUGU [C18A A52U] | 0.258
GGGGGCCACAGCAGAAGAGUUCACGUCGCGGCCCCUGUCAGAUUCUGGUGAGUCUGCGAAUUCUGCUGU [C18A A52G] | 0.201
GGGGGCCACAGCAGAAGAGUUUACGUCGCGGCCCCUGUCAGAUUCUGGUGAAUCUGCGAAUUCUGCUGU [C18A C22U] | 0.0813
GGGGGCCACAGCAGAAGAGUUGACGUCGCGGCCCCUGUCAGAUUCUGGUGAAUCUGCGAAUUCUGCUGU [C18A C22G] | 0.159
GGGGGCCACAGCAGAAGAGUUAACGUCGCGGCCCCUGUCAGAUUCUGGUGAAUCUGCGAAUUCUGCUGU [C18A C22A] | 0.144
GGGGGCCACAGCAGAAGAGUUCACGUCGCGGUCCCUGUCAGAUUCUGGUGAAUCUGCGAAUUCUGCUGU [C18A C32U] | 0.22
GGGGGCCACAGCAGAAGAGUUCACGUCGCGGGCCCUGUCAGAUUCUGGUGAAUCUGCGAAUUCUGCUGU [C18A C32G] | 0.181
GGGGGCCACAGCAGAAGAGUUCACGUCGCGGACCCUGUCAGAUUCUGGUGAAUCUGCGAAUUCUGCUGU [C18A C32A] | 0.192

From the RNAGym collection of RNA variant scans (doi:10.7554/elife.80360)
